Reference: the supplement of paper PMC10567573

B1: SPACA3 (parent)
chain: FTSGFNAAALDYEADGSTNNGIFQ
B2: CPXM2 (parent)
chain: EILGCPLPDPNNYYHRRNEMTTTD

Variants of: B1
Assay: protein stability index of a GFP-peptide fusion (GPS, HEK-293T) (PSI 1-6); higher = more stable
Conditions: c terminus: a fixed tail appended
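Further: lentivirally expressed fusions sorted by FACS into six bins by GFP to DsRed ratio, PSI derived from sequencing read proportions per bin multiplied by bin number.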

Protein stability index, by site and new letter:
A9: C 1.83
S3: G 4.05 | M 2.52 | W 2.26 | D 2.55 | Y 2.03 | K 2.97 | N 2.56 | F 2.12 | V 2.07 | L 2.2 | I 1.76 | H 2.14 | E 2 | T 1.84 | P 2.29 | C 1.65 | Q 2.19 | R 2.46 | A 2.37
A7: N 1.73 | D 2.62 | C 2.08 | K 1.83 | R 2 | F 3.08 | T 1.83 | I 2.13 | V 2.35 | E 2.8 | S 1.92 | M 2.14 | G 2.13 | W 2.39 | Y 2.31 | P 1.82 | H 2.2 | Q 2.02 | L 2.88
F1: E 5.11 | H 4.48 | A 4.21 | R 4.61 | L 4.01 | M 3.99 | Y 2.24 | K 4.54 | T 4.63 | G 4.61 | Q 4.24 | P 4.29 | W 3.6 | N 4.94 | C 3.44 | V 4.46 | D 5.15 | I 3.95 | S 4.64
T2: M 3.05 | F 3.13 | C 2.08 | W 2.91 | I 2.02 | S 2.88 | E 4.66 | Q 2.26 | L 2.78 | R 2.71 | V 2.31 | D 4.32 | Y 2.75 | N 3.81 | H 2.02 | K 3.62 | A 2.44 | G 3.11 | P 2.07
A8: S 1.99 | P 2.13 | T 1.98 | K 2.23 | M 1.64 | E 2.35 | F 2.73 | G 1.82 | V 2.4 | W 2.61 | Q 1.84 | C 1.77 | D 2.98 | N 2.35 | Y 1.89 | L 1.73 | R 2.29 | I 2.34 | H 1.85
F5: H 3.55 | E 4.38 | I 3.14 | G 3.63 | Y 2.18 | Q 4.12 | D 4.79 | N 4.47 | V 4.01 | P 3.81 | R 3.25 | T 4.06 | S 4.18 | A 4.07 | L 3.11 | K 3.8 | M 3.25 | C 3.03 | W 3.06
N6: L 2.78 | V 2.08 | P 1.61 | T 1.61 | E 2.88 | A 1.84 | K 2.45 | Q 1.94 | Y 2.82 | C 3 | H 2.38 | F 3.46 | G 1.83 | S 1.85 | M 3.01 | R 1.41 | W 3.02 | I 1.43 | D 2.99
G4: S 2.38 | C 1.94 | K 1.98 | Y 1.68 | I 2.15 | P 2.78 | V 2.21 | F 2.13 | T 2.42 | L 1.7 | H 2.59 | W 2.98 | N 2.3 | E 2.22 | Q 2.43 | M 1.74 | R 1.87 | A 1.82 | D 2.79

Variants of: B2
Assay: as above
Conditions: c terminus: a fixed tail appended

Protein stability index: each site, then its substitutions
N18: P 3.21 | S 3.26 | C 3.59 | Q 3.7 | W 2.16
N12: T 3.17 | S 3.09 | L 3.42 | D 4.07 | K 2.77 | Y 3.35 | F 2.5
N11: C 2.72 | R 3.04 | I 2.48 | E 4.07 | A 3.43 | V 3.38 | P 3.84 | L 2.98 | K 3.47
E1: P 4.63 | R 3.59 | V 2.4 | T 3.69 | H 3.16
E19: W 2.09 | K 2.83 | P 2.86 | L 2.22 | G 3.59 | N 3.3 | C 2.8 | A 2.89 | M 2.48
C5: Y 2.96 | G 3.76 | K 4.08 | W 2.72 | V 3.41 | M 3.83
T21: K 4.37 | H 2.91 | F 2.77 | L 2.97 | Q 3.6 | N 3.45 | M 3.23
D24: M 2.28 | V 3.02 | A 2.61 | T 2.82 | C 2.86 | Q 2.91 | W 1.86 | L 2.46
R16: T 3.48 | V 3.19 | E 3.94 | Q 4.03 | D 3.98 | A 3.84 | K 3.52 | L 3.28 | M 3.48
P10: C 3.26 | S 3.42 | A 3.45 | H 3.66 | I 3.09 | D 3.88 | N 3.37
T23: S 3.39 | L 3.07 | I 3.55 | D 3.85 | F 2.43 | P 3.67 | R 3.37 | A 3.65 | C 3.8 | Q 3.54
Y14: D 4.31 | K 3.88 | E 4.59 | M 3.57 | R 3.92 | H 3.84 | S 4.38
H15: D 4.42 | C 2.71 | I 3.52 | P 3.64 | S 3.56
P8: Y 2.71 | R 3.56 | T 3.12 | W 2.62 | H 2.82 | D 4.22 | S 3.17 | E 3.88 | G 3.8
Y13: A 4.21 | I 3.92 | W 2.9 | T 4.35 | F 3.35 | D 4.43 | S 3.86 | V 4.03
L7: W 3.32 | S 4.14 | D 4.04 | I 3.79
G4: T 3.49 | K 3.39 | D 3.96 | Q 3.5 | L 2.69 | A 3.35 | F 2.69
D9: W 2.44 | L 3.05 | G 3.03 | P 3.26 | I 2.59 | T 3.25
T22: H 3.51 | R 3 | P 3.22 | M 3.28 | A 3.15 | G 3.56 | K 3.54 | F 2.77 | C 3.15 | W 1.85 | S 3.48
P6: M 2.07 | V 2.48 | S 3.4 | K 2.76 | H 2.94 | E 3.58 | L 2.14 | T 3.49 | W 2.46 | I 2.01 | R 2.84
M20: T 4.6 | G 4.6 | A 3.99 | K 3.53 | S 3.98 | N 3.92
L3: C 4.07 | Y 3.7 | V 3.85 | I 3.58 | P 4.7 | A 4.09 | E 4.39 | Q 4.13 | W 3.84 | N 3.78
I2: W 3.82 | S 4.51 | Q 4.76 | C 3.98 | V 3.79 | L 3.34 | H 4.64 | T 4.32
R17: G 3.79 | S 3.88 | W 2.63 | V 3.22 | H 3.3 | I 3.35 | L 2.7
